Patent US20210238276A1 (INTEGRAL MOLECULAR, published 2021)
Positions count from the first letter of the chain named.

Tests used:
Assay in all cases: flow cytometry, alanine-scan library in HEK-293T, with cytochalasin B
hsGLUT4 G65A = molecular target: T1, hsGLUT4 G65A (human, UniProt P14672 1-509)
T1 sequence: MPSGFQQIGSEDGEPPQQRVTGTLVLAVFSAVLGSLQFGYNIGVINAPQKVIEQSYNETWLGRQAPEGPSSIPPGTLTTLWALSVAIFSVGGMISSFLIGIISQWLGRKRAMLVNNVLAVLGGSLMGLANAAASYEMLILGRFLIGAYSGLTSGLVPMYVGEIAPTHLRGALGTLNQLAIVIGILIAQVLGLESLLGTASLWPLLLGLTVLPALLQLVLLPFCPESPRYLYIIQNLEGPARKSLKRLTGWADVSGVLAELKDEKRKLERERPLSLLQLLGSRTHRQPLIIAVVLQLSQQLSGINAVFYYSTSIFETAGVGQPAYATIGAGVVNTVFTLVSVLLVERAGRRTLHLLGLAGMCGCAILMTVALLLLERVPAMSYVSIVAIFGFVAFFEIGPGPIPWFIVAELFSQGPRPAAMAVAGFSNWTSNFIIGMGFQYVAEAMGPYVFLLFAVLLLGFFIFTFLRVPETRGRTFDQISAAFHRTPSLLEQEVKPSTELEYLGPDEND
Protocol: (§1) Because of the state-dependence of the isolated MAbs, we next wished to understand the mechanism by which each MAb could recognize GLUT4 in its different conformations. The residues required for binding of each MAb were determined using shotgun mutagenesis comprehensive alanine scanning (Davidson E & Doranz B J (2014) A High-Throughput Shotgun Mutagenesis Approach to Mapping B-cell Antibody Epitopes. Immunology, which is hereby incorporated by reference in its entirety). All residues of hsGLUT4 were individually mutated to alanine, with existing alanines changed to serines. Mutations were obtained for 508 of the 509 residues of GLUT4 (excluding the initiating methionine). The entire mutation library was transfected into human HEK-293T cells in a 384-well array format (one clone per well) and assessed for immunoreactivity using high-throughput flow cytometry.
(§2) HEK-293T cells were transfected by CaPO₄ with plasmids in 6-well culture plates (Falcon) at 750,000 cells/well. At 48 hours post transfection, cells were stained with anti-V5 and anti-GLUT4 MAbs (purified scFv, 2 μg/ml) followed by biotinylated goat anti-mouse or human antibody (1:500) and streptavidin-PerCP (1:500). Fluorescence was detected using an Intellicyt high-throughput flow cytometer (HTFC; Intellicyt, Albuquerque, N. Mex.). For cell permeabilization, cells were treated with saponin at 0.1% in PBS for 20 minutes. To discriminate intact (live) and permeabilized (dead) cells without the use of detergent, propidium iodide (PI) was added to HEK-293T cells at 1 ug/ml just prior to flow cytometry. Where indicated, cytochalasin B (Sigma) was used at a final concentration of 10 uM and phloretin (Sigma) was used at a final concentration of 100 uM, each added in 10% NGS for 30 minutes prior to antibody staining as well as included with the primary antibody.

hsGLUT4 I163A = molecular target: T2, hsGLUT4 I163A (human, UniProt P14672 1-509)
T2 sequence: T1 sequence with A65G, I163A
Protocol: as §1, §2

hsGLUT4 L296A = molecular target: T3, hsGLUT4 L296A (human, UniProt P14672 1-509)
T3 sequence: T1 sequence with A65G, L296A
Protocol: as §1, §2

hsGLUT4 G348A = molecular target: T4, hsGLUT4 G348A (human, UniProt P14672 1-509)
T4 sequence: T1 sequence with A65G, G348A
Protocol: as §1, §2

B1: AB102 (Fc fusion)
scFv: ALTQPSSVSANLGGTVKITCSGGGSYGYGWYQQKSPGSAPVTVIYSNDQRPSDIPSRFSGSKSGSTATLTITGVRAEDEAIYYCGSTDSDYVGIFGAGTTLTVLGQSSRSSGGGGSSGGGGSAVTLDESGGGLQTPGGTLSLVCKASGFDFSSYATIWVRQAPGKGLEWVAGISGTGTGSSTGYAPAVKGRATISRDNGQSTVRLQLNNLRAEDTGSYFCAKSTGYGDSWIYPDSIDAWGHGTEVIVSS
notes: also called MAb AB102; not shown: Fc fragment of human IgG1, cloned in frame with the scFv
With B1 the “% of binding to wild type GLUT4” value (hsGLUT4 G65A) was 95%, the “% of binding to wild type GLUT4” value (hsGLUT4 I163A) was 28% and the “% of binding to wild type GLUT4” value (hsGLUT4 L296A) was 69%. The “% of binding to wild type GLUT4” value (hsGLUT4 G348A) was 79%.
